Experimental data published in PMC4122344, “Heterodimerization of p45–p75 Modulates p75 Signaling: Structural Basis and Mechanism of Action” (PLoS Biology, 2014).

Columns and labels:
[1] = biological target: T1, Flag-tagged human NgR (human, UniProt Q9BZR6 27-447); assay: co-IP; HEK293 co-transfected with wild-type or mutant p75 and Flag-tagged NgR; p75 co-immunoprecipitated with NgR; blots quantified, wild type = 100%; settings: partners not purified
T1 construct: Nogo-66 receptor (NgR), human; Printed both as Flag-hNgR and as NgR-Flag; also called Flag-hNgR; NgR-Flag; source: HEK293, transfected, in lysate
T1 sequence (looked up): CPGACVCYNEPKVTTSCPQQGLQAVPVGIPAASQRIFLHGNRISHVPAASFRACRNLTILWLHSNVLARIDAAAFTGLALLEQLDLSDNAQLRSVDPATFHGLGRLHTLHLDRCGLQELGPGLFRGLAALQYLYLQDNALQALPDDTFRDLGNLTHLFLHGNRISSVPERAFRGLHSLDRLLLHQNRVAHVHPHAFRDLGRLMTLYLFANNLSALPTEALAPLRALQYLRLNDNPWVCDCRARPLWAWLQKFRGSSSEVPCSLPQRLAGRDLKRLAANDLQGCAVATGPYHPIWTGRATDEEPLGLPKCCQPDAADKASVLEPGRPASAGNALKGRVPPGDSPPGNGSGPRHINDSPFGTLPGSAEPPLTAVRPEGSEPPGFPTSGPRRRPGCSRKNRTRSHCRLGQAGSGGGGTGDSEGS

[2] = biological target: T2, p75ICD (residues 290–418) (human, UniProt P08138 290-418); assay: SEC; S200-Superdex gel filtration, 4 °C, PBS pH 8.0, 0.7 ml/min; p75ICD purified with or without DTT (or with iodoacetamide in the lysis buffer); settings: both partners purified
T2 chain: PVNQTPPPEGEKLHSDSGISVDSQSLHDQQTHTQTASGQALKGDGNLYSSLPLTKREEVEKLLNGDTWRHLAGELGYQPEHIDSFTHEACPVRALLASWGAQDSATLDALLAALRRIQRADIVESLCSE

[3] = biological target: T2, p75ICD (residues 290–418); assay: NMR titration; TROSY spectra of 15N-labelled p75ICD at different concentrations (10, 100, 500 µM) with DTT; 25 °C, PBS pH 8.0, 100 mM NaCl; monomer to dimer; settings: both partners purified

B1: p75 D372R (full-length) (receptor, UniProt P07174 30-425, looked up)
chain: KETCSTGLYTHSGECCKACNLGEGVAQPCGANQTVCEPCLDNVTFSDVVSATEPCKPCTECLGLQSMSAPCVEADDAVCRCAYGYYQDEETGHCEACSVCEVGSGLVFSCQDKQNTVCEECPEGTYSDEANHVDPCLPCTVCEDTERQLRECTPWADAECEEIPGRWIPRSTPPEGSDSTAPSTQEPEVPPEQDLVPSTVADMVTTVMGSSQPVVTRGTTDNLIPVYCSILAAVVVGLVAYIAFKRWNSCKQNKQGANSRPVNQTPPPEGEKLHSDSGISVDSQSLHDQQTHTQTASGQALKGDGNLYSSLPLTKREEVEKLLNGDTWRHLAGELGYQPEHIRSFTHEACPVRALLASWGAQDSATLDALLAALRRIQRADIVESLCSESTATSPV
notes: p75 neurotrophin receptor; source: HEK293, transfected, in lysate
percent co-immunoprecipitated with NgR (WT, 100%) [1]: 61.8%

B2: p75 H376E (full-length) (receptor, UniProt P07174 30-425, looked up)
chain: KETCSTGLYTHSGECCKACNLGEGVAQPCGANQTVCEPCLDNVTFSDVVSATEPCKPCTECLGLQSMSAPCVEADDAVCRCAYGYYQDEETGHCEACSVCEVGSGLVFSCQDKQNTVCEECPEGTYSDEANHVDPCLPCTVCEDTERQLRECTPWADAECEEIPGRWIPRSTPPEGSDSTAPSTQEPEVPPEQDLVPSTVADMVTTVMGSSQPVVTRGTTDNLIPVYCSILAAVVVGLVAYIAFKRWNSCKQNKQGANSRPVNQTPPPEGEKLHSDSGISVDSQSLHDQQTHTQTASGQALKGDGNLYSSLPLTKREEVEKLLNGDTWRHLAGELGYQPEHIDSFTEEACPVRALLASWGAQDSATLDALLAALRRIQRADIVESLCSESTATSPV
notes: as for B1
percent co-immunoprecipitated with NgR (WT, 100%) [1]: 125%

B3: p75-C257A (full-length) (receptor, UniProt P07174 30-425, looked up)
chain: KETCSTGLYTHSGECCKACNLGEGVAQPCGANQTVCEPCLDNVTFSDVVSATEPCKPCTECLGLQSMSAPCVEADDAVCRCAYGYYQDEETGHCEACSVCEVGSGLVFSCQDKQNTVCEECPEGTYSDEANHVDPCLPCTVCEDTERQLRECTPWADAECEEIPGRWIPRSTPPEGSDSTAPSTQEPEVPPEQDLVPSTVADMVTTVMGSSQPVVTRGTTDNLIPVYASILAAVVVGLVAYIAFKRWNSCKQNKQGANSRPVNQTPPPEGEKLHSDSGISVDSQSLHDQQTHTQTASGQALKGDGNLYSSLPLTKREEVEKLLNGDTWRHLAGELGYQPEHIDSFTHEACPVRALLASWGAQDSATLDALLAALRRIQRADIVESLCSESTATSPV
notes: p75 neurotrophin receptor; also called p75 TM domain mutant; source: HEK293, transfected, in lysate
percent co-immunoprecipitated with NgR (WT, 100%) [1]: 17.7%

B4: p75 E377R (full-length) (receptor, UniProt P07174 30-425, looked up)
chain: KETCSTGLYTHSGECCKACNLGEGVAQPCGANQTVCEPCLDNVTFSDVVSATEPCKPCTECLGLQSMSAPCVEADDAVCRCAYGYYQDEETGHCEACSVCEVGSGLVFSCQDKQNTVCEECPEGTYSDEANHVDPCLPCTVCEDTERQLRECTPWADAECEEIPGRWIPRSTPPEGSDSTAPSTQEPEVPPEQDLVPSTVADMVTTVMGSSQPVVTRGTTDNLIPVYCSILAAVVVGLVAYIAFKRWNSCKQNKQGANSRPVNQTPPPEGEKLHSDSGISVDSQSLHDQQTHTQTASGQALKGDGNLYSSLPLTKREEVEKLLNGDTWRHLAGELGYQPEHIDSFTHRACPVRALLASWGAQDSATLDALLAALRRIQRADIVESLCSESTATSPV
notes: as for B1
percent co-immunoprecipitated with NgR (WT, 100%) [1]: 27.4%

B5: p75ICD (residues 290–418) (domain or fragment)
chain: PVNQTPPPEGEKLHSDSGISVDSQSLHDQQTHTQTASGQALKGDGNLYSSLPLTKREEVEKLLNGDTWRHLAGELGYQPEHIDSFTHEACPVRALLASWGAQDSATLDALLAALRRIQRADIVESLCSE
modifications: Methods print 'human p75ICD', but all residue numbers (L360, E363, Q367, D372, H376, E377, C379, W388, R404) and the mapped structure 1NGR fit the rat precursor; human P08138 is offset by +2 in this …
stoichiometry N [2]: 2 | Kd [3]: ~100 µM
